From US20110294738A1, “PTHR1 RECEPTOR COMPOUNDS” (priority 2008, published 2011)
Where “and” joins values, the source holds several entries; their conditions need not be identical. Identical values can stand only once. * marks the point of attachment. Palmitoyl = CCCCCCCCCCCCCCCC(=O)*

B1: Compound 51 (peptide)
peptide: Palmitoyl-RETNAGRSDTRQQYRKLLKS-NH2
SMILES: CCCCCCCCCCCCCCCC(=O)N[C@@H](CCCNC(=N)N)C(=O)N[C@@H](CCC(=O)O)C(=O)N[C@H](C(=O)N[C@@H](CC(N)=O)C(=O)N[C@@H](C)C(=O)NCC(=O)N[C@@H](CCCNC(=N)N)C(=O)N[C@@H](CO)C(=O)N[C@@H](CC(=O)O)C(=O)N[C@H](C(=O)N[C@@H](CCCNC(=N)N)C(=O)N[C@@H](CCC(N)=O)C(=O)N[C@@H](CCC(N)=O)C(=O)N[C@@H](Cc1ccc(O)cc1)C(=O)N[C@@H](CCCNC(=N)N)C(=O)N[C@@H](CCCCN)C(=O)N[C@@H](CC(C)C)C(=O)N[C@@H](CC(C)C)C(=O)N[C@@H](CCCCN)C(=O)N[C@@H](CO)C(N)=O)[C@@H](C)O)[C@@H](C)O
B2: Compound 52 (peptide)
peptide: Palmitoyl-TNAGRSDTRQQYRKLLKSTL-NH2
SMILES: CCCCCCCCCCCCCCCC(=O)N[C@H](C(=O)N[C@@H](CC(N)=O)C(=O)N[C@@H](C)C(=O)NCC(=O)N[C@@H](CCCNC(=N)N)C(=O)N[C@@H](CO)C(=O)N[C@@H](CC(=O)O)C(=O)N[C@H](C(=O)N[C@@H](CCCNC(=N)N)C(=O)N[C@@H](CCC(N)=O)C(=O)N[C@@H](CCC(N)=O)C(=O)N[C@@H](Cc1ccc(O)cc1)C(=O)N[C@@H](CCCNC(=N)N)C(=O)N[C@@H](CCCCN)C(=O)N[C@@H](CC(C)C)C(=O)N[C@@H](CC(C)C)C(=O)N[C@@H](CCCCN)C(=O)N[C@@H](CO)C(=O)N[C@H](C(=O)N[C@@H](CC(C)C)C(N)=O)[C@@H](C)O)[C@@H](C)O)[C@@H](C)O
B3: Compound 10 (peptide)
peptide: Palmitoyl-LAYFRRLHSTRNYIHMH-NH2
SMILES: CCCCCCCCCCCCCCCC(=O)N[C@@H](CC(C)C)C(=O)N[C@@H](C)C(=O)N[C@@H](Cc1ccc(O)cc1)C(=O)N[C@@H](Cc1ccccc1)C(=O)N[C@@H](CCCNC(=N)N)C(=O)N[C@@H](CCCNC(=N)N)C(=O)N[C@@H](CC(C)C)C(=O)N[C@@H](Cc1c[nH]cn1)C(=O)N[C@@H](CO)C(=O)N[C@H](C(=O)N[C@@H](CCCNC(=N)N)C(=O)N[C@@H](CC(N)=O)C(=O)N[C@@H](Cc1ccc(O)cc1)C(=O)N[C@H](C(=O)N[C@@H](Cc1c[nH]cn1)C(=O)N[C@@H](CCSC)C(=O)N[C@@H](Cc1c[nH]cn1)C(N)=O)[C@@H](C)CC)[C@@H](C)O
B4: Compound 11 (peptide)
peptide: Palmitoyl-GSYFRRLHSTRNYIH-NH2
SMILES: CCCCCCCCCCCCCCCC(=O)NCC(=O)N[C@@H](CO)C(=O)N[C@@H](Cc1ccc(O)cc1)C(=O)N[C@@H](Cc1ccccc1)C(=O)N[C@@H](CCCNC(=N)N)C(=O)N[C@@H](CCCNC(=N)N)C(=O)N[C@@H](CC(C)C)C(=O)N[C@@H](Cc1c[nH]cn1)C(=O)N[C@@H](CO)C(=O)N[C@H](C(=O)N[C@@H](CCCNC(=N)N)C(=O)N[C@@H](CC(N)=O)C(=O)N[C@@H](Cc1ccc(O)cc1)C(=O)N[C@H](C(=O)N[C@@H](Cc1c[nH]cn1)C(N)=O)[C@@H](C)CC)[C@@H](C)O
B5: Compound 38 (peptide)
peptide: Palmitoyl-LYLHSLIFMAFFSEKKYLWG-NH2
SMILES: CCCCCCCCCCCCCCCC(=O)N[C@@H](CC(C)C)C(=O)N[C@@H](Cc1ccc(O)cc1)C(=O)N[C@@H](CC(C)C)C(=O)N[C@@H](Cc1c[nH]cn1)C(=O)N[C@@H](CO)C(=O)N[C@@H](CC(C)C)C(=O)N[C@H](C(=O)N[C@@H](Cc1ccccc1)C(=O)N[C@@H](CCSC)C(=O)N[C@@H](C)C(=O)N[C@@H](Cc1ccccc1)C(=O)N[C@@H](Cc1ccccc1)C(=O)N[C@@H](CO)C(=O)N[C@@H](CCC(=O)O)C(=O)N[C@@H](CCCCN)C(=O)N[C@@H](CCCCN)C(=O)N[C@@H](Cc1ccc(O)cc1)C(=O)N[C@@H](CC(C)C)C(=O)N[C@@H](Cc1c[nH]c2ccccc12)C(=O)NCC(N)=O)[C@@H](C)CC
B6: Compound 9 (peptide)
peptide: Palmitoyl-LAYFRRLHSTRNYI-NH2
SMILES: CCCCCCCCCCCCCCCC(=O)N[C@@H](CC(C)C)C(=O)N[C@@H](C)C(=O)N[C@@H](Cc1ccc(O)cc1)C(=O)N[C@@H](Cc1ccccc1)C(=O)N[C@@H](CCCNC(=N)N)C(=O)N[C@@H](CCCNC(=N)N)C(=O)N[C@@H](CC(C)C)C(=O)N[C@@H](Cc1c[nH]cn1)C(=O)N[C@@H](CO)C(=O)N[C@H](C(=O)N[C@@H](CCCNC(=N)N)C(=O)N[C@@H](CC(N)=O)C(=O)N[C@@H](Cc1ccc(O)cc1)C(=O)N[C@H](C(N)=O)[C@@H](C)CC)[C@@H](C)O
B7: Compound 7 (peptide)
peptide: Palmitoyl-AYFRRLHSTRNYIH-NH2
SMILES: CCCCCCCCCCCCCCCC(=O)N[C@@H](C)C(=O)N[C@@H](Cc1ccc(O)cc1)C(=O)N[C@@H](Cc1ccccc1)C(=O)N[C@@H](CCCNC(=N)N)C(=O)N[C@@H](CCCNC(=N)N)C(=O)N[C@@H](CC(C)C)C(=O)N[C@@H](Cc1c[nH]cn1)C(=O)N[C@@H](CO)C(=O)N[C@H](C(=O)N[C@@H](CCCNC(=N)N)C(=O)N[C@@H](CC(N)=O)C(=O)N[C@@H](Cc1ccc(O)cc1)C(=O)N[C@H](C(=O)N[C@@H](Cc1c[nH]cn1)C(N)=O)[C@@H](C)CC)[C@@H](C)O
B8: Compound 37 (peptide)
peptide: Palmitoyl-LHSLIFMAFFSEKKYLWGFT-NH2
SMILES: CCCCCCCCCCCCCCCC(=O)N[C@@H](CC(C)C)C(=O)N[C@@H](Cc1c[nH]cn1)C(=O)N[C@@H](CO)C(=O)N[C@@H](CC(C)C)C(=O)N[C@H](C(=O)N[C@@H](Cc1ccccc1)C(=O)N[C@@H](CCSC)C(=O)N[C@@H](C)C(=O)N[C@@H](Cc1ccccc1)C(=O)N[C@@H](Cc1ccccc1)C(=O)N[C@@H](CO)C(=O)N[C@@H](CCC(=O)O)C(=O)N[C@@H](CCCCN)C(=O)N[C@@H](CCCCN)C(=O)N[C@@H](Cc1ccc(O)cc1)C(=O)N[C@@H](CC(C)C)C(=O)N[C@@H](Cc1c[nH]c2ccccc12)C(=O)NCC(=O)N[C@@H](Cc1ccccc1)C(=O)N[C@H](C(N)=O)[C@@H](C)O)[C@@H](C)CC
B9: Compound 53 (peptide)
peptide: Palmitoyl-KLRETNAGRSDTRQQY-NH2
SMILES: CCCCCCCCCCCCCCCC(=O)N[C@@H](CCCCN)C(=O)N[C@@H](CC(C)C)C(=O)N[C@@H](CCCNC(=N)N)C(=O)N[C@@H](CCC(=O)O)C(=O)N[C@H](C(=O)N[C@@H](CC(N)=O)C(=O)N[C@@H](C)C(=O)NCC(=O)N[C@@H](CCCNC(=N)N)C(=O)N[C@@H](CO)C(=O)N[C@@H](CC(=O)O)C(=O)N[C@H](C(=O)N[C@@H](CCCNC(=N)N)C(=O)N[C@@H](CCC(N)=O)C(=O)N[C@@H](CCC(N)=O)C(=O)N[C@@H](Cc1ccc(O)cc1)C(N)=O)[C@@H](C)O)[C@@H](C)O
B10: Compound 12 (peptide)
peptide: Palmitoyl-SSYFRRLHSTRNYIH-NH2
SMILES: CCCCCCCCCCCCCCCC(=O)N[C@@H](CO)C(=O)N[C@@H](CO)C(=O)N[C@@H](Cc1ccc(O)cc1)C(=O)N[C@@H](Cc1ccccc1)C(=O)N[C@@H](CCCNC(=N)N)C(=O)N[C@@H](CCCNC(=N)N)C(=O)N[C@@H](CC(C)C)C(=O)N[C@@H](Cc1c[nH]cn1)C(=O)N[C@@H](CO)C(=O)N[C@H](C(=O)N[C@@H](CCCNC(=N)N)C(=O)N[C@@H](CC(N)=O)C(=O)N[C@@H](Cc1ccc(O)cc1)C(=O)N[C@H](C(=O)N[C@@H](Cc1c[nH]cn1)C(N)=O)[C@@H](C)CC)[C@@H](C)O
B11: Compound 49 (peptide)
peptide: Palmitoyl-TNAGRSDTRQQRKLLKSTL-NH2
SMILES: CCCCCCCCCCCCCCCC(=O)N[C@H](C(=O)N[C@@H](CC(N)=O)C(=O)N[C@@H](C)C(=O)NCC(=O)N[C@@H](CCCNC(=N)N)C(=O)N[C@@H](CO)C(=O)N[C@@H](CC(=O)O)C(=O)N[C@H](C(=O)N[C@@H](CCCNC(=N)N)C(=O)N[C@@H](CCC(N)=O)C(=O)N[C@@H](CCC(N)=O)C(=O)N[C@@H](CCCNC(=N)N)C(=O)N[C@@H](CCCCN)C(=O)N[C@@H](CC(C)C)C(=O)N[C@@H](CC(C)C)C(=O)N[C@@H](CCCCN)C(=O)N[C@@H](CO)C(=O)N[C@H](C(=O)N[C@@H](CC(C)C)C(N)=O)[C@@H](C)O)[C@@H](C)O)[C@@H](C)O
B12: Compound 39 (peptide)
peptide: Palmitoyl-LYLHSLIFMAFFSEKKYL-NH2
SMILES: CCCCCCCCCCCCCCCC(=O)N[C@@H](CC(C)C)C(=O)N[C@@H](Cc1ccc(O)cc1)C(=O)N[C@@H](CC(C)C)C(=O)N[C@@H](Cc1c[nH]cn1)C(=O)N[C@@H](CO)C(=O)N[C@@H](CC(C)C)C(=O)N[C@H](C(=O)N[C@@H](Cc1ccccc1)C(=O)N[C@@H](CCSC)C(=O)N[C@@H](C)C(=O)N[C@@H](Cc1ccccc1)C(=O)N[C@@H](Cc1ccccc1)C(=O)N[C@@H](CO)C(=O)N[C@@H](CCC(=O)O)C(=O)N[C@@H](CCCCN)C(=O)N[C@@H](CCCCN)C(=O)N[C@@H](Cc1ccc(O)cc1)C(=O)N[C@@H](CC(C)C)C(N)=O)[C@@H](C)CC
B13: Compound 33 (peptide)
peptide: Palmitoyl-HSLIFMAFFSEKKYL-NH2
SMILES: CCCCCCCCCCCCCCCC(=O)N[C@@H](Cc1c[nH]cn1)C(=O)N[C@@H](CO)C(=O)N[C@@H](CC(C)C)C(=O)N[C@H](C(=O)N[C@@H](Cc1ccccc1)C(=O)N[C@@H](CCSC)C(=O)N[C@@H](C)C(=O)N[C@@H](Cc1ccccc1)C(=O)N[C@@H](Cc1ccccc1)C(=O)N[C@@H](CO)C(=O)N[C@@H](CCC(=O)O)C(=O)N[C@@H](CCCCN)C(=O)N[C@@H](CCCCN)C(=O)N[C@@H](Cc1ccc(O)cc1)C(=O)N[C@@H](CC(C)C)C(N)=O)[C@@H](C)CC

The binders below were run against PTHR1 receptor.
Sequence of PTHR1 receptor (P25961 whole entry): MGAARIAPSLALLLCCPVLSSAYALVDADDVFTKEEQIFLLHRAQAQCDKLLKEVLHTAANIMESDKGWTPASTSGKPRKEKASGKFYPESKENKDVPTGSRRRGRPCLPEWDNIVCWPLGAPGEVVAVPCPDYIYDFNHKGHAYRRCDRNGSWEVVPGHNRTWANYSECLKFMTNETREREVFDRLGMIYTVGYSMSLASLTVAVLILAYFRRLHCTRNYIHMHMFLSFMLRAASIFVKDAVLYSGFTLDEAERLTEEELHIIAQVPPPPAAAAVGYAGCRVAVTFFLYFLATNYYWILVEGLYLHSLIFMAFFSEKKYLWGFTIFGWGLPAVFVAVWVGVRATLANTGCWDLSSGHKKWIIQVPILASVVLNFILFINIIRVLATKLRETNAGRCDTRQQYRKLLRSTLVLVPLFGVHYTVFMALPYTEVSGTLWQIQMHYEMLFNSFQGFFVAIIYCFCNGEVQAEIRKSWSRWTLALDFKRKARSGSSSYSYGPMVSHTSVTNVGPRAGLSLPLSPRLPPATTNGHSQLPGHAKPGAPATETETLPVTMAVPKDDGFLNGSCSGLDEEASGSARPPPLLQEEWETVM

| Binder | Fold Shift of EC50 | Inhibition of Maximal Response |
| --- | --- | --- |
| B1 | 12.4 fold | -0.015 |
| B2 | 11.1 fold | 1.7% |
| B3 | 1.1 fold | 24.1% |
| B4 | 1.1 fold | 19.8% |
| B5 | 1.1 fold | 21.9% |
| B6 | 1.1 fold | 12.7% |
| B7 | 1.2 fold | 36% |
| B8 | 1.1 fold | 35.6% |
| B9 | 2.1 fold | 6.4% |
| B10 | 0.9 fold | 26.6% |
| B11 | 1.5 fold and 2.3 fold |  |
| B12 | 1.3 fold | 29.3% |
| B13 | 1.1 fold | 27.5% |
